Article doi:10.1101/2023.08.11.552966 (bioRxiv, 2023)

How the values were obtained:
[1] = target: RAD51 WT (Homo sapiens, UniProt Q06609 1-339); test: BLI
[2] = target: the molecule itself; test: cross-linking

Binder	Kd [1] [nM]	binding result [2]
GCCAUCCGCAAAAAUGACCUCUUAUCAAAAGGA (ssRNA) [33m RNA]	530	
His-tagged RAD51 S97A (non phosphorylable mutant) (natural protein) MAMQMQLEANADTSVEEESFGPQPISRLEQCGINANDVKKLEEAGFHTVEAVAYAPKKELINIKGISEAKADKILAEAAKLVPMGFTTATEFHQRRAEIIQITTGSKELDKLLQGGIETGSITEMFGEFRTGKTQICHTLAVTCQLPIDRGGGEGKAMYIDTEGTFRPERLLAVAERYGLSGSDVLDNVAYARAFNTDHQTQLLYQASAMMVESRYALLIVDSATALYRTDYSGRGELSARQMHLARFLRMLLRLADEFGVAVVITNQVVAQVDGAAMFAADPKKPIGGNIIAHASTTRLYLRKGRGETRICKIYDSPCLPEAEAMFAINADGVGDAKD		binds
His-tagged RAD51 S97D (phosphomimetic mutant) (natural protein) MAMQMQLEANADTSVEEESFGPQPISRLEQCGINANDVKKLEEAGFHTVEAVAYAPKKELINIKGISEAKADKILAEAAKLVPMGFTTATEFHQRRDEIIQITTGSKELDKLLQGGIETGSITEMFGEFRTGKTQICHTLAVTCQLPIDRGGGEGKAMYIDTEGTFRPERLLAVAERYGLSGSDVLDNVAYARAFNTDHQTQLLYQASAMMVESRYALLIVDSATALYRTDYSGRGELSARQMHLARFLRMLLRLADEFGVAVVITNQVVAQVDGAAMFAADPKKPIGGNIIAHASTTRLYLRKGRGETRICKIYDSPCLPEAEAMFAINADGVGDAKD		binds
TCCTTTTGATAAGAGGTCATTTTTGCGGATGGC (ssDNA) [33m DNA]	3840	
